Columns and labels:
[1] = Fluorescence of free biliverdin in different solvent conditions; assay type: physicochemical; details: increased hydrophobicity of the medium
Source text: FIG. 11F Effect of hydrophobicity of solvent on fluorescence spectra of biliverdin monitored at excitation wavelengths of (left) 375 nm and (right) 600 nm. Labels are biliverdin in DMSO 1150, biliverdin in acetone 1152, biliverdin in ethanol 1154, biliverdin in benzene 1156, and biliverdin in toluene 1158.
FIG. 11G Effect of viscosity of solvent (PEG 400) on fluorescence spectra of biliverdin monitored at excitation wavelengths of (left) 375 nm and (right) 600 nm. Labels are 0% PEG400 1160, 5% PEG400 1162, 10% PEG400 1164, and 15% PEG400 1166.
We performed experiments with free biliverdin in different solvents conditions, to understand the molecular basis of the observed fluorescent properties of Sandercyanin-BV complex. […] A similar trend was observed on increasing the viscosity of medium with increased polyethylene glycol and changing the pH of medium to pH 8.8-9.5.

[2] = Photobleaching / photo-stability studies; assay type: physicochemical
Procedure: FIGS. 11C-11D (C) Titration of apo-SFP (20 uM) with BV IXα measured at 675 nm with λex=375 nm (green) and 630 nm (red). (D) Photo-bleaching kinetics of Sandercyanin and free-biliverdin (BV).
(§1) All experiments were performed with purified SFP samples (apo and holo forms) at pH 7.5 and room temperature. UV-Visible absorbance spectra of native and recombinant SFP were recorded from 800 to 200 nm with ultraspec 2100 pro spectrophotometer from Amersham Biosciences. CD spectra were measured on JASCO J-815 Spectropolarimeter. Steady state fluorescence, excitation, binding and photobleaching studies were monitored on Horiba Jobin Yvon Fluoromax-4 fluorimeter. Data analysis were done using Origin6 and Origin8 software. Hydrogen was exchanged with Deuterium by increasing concentrations of D2O to a standard protein concentration. Deuteriated proteins were prepared in the same buffer, incubated for 15 minutes, and monitored for spectral properties.

[3] = tested on: apoSFP; assay: Binding of apoSFP with other tetrapyrroles monitored by fluorescence; design: species or system Sander vitreus; details: excitation at 375 nm and 630 nm
Source text: FIG. 11E Binding of apoSFP with other tetrapyrroles monitored by fluorescence on excitation at (left) 375 nm and (right) 630 nm.
To examine the specificity of Sandercyanin to bilverdin IXa, we tested other BV-like tetrapyrrol compounds: hemin, bilirubin, and esterified BV derivatives.

[4] = Biliverdin binding of SFP and monomeric variants (fluorescence titration, UV-visible absorbance)
Procedure: as §1
All SFP variants were expressed using E. coli BL21*(DE3) cells. […] Thus, refolded purified SFP was checked using an analytical gel filtration column for oligomerization state and biliverdin (BV) binding by UV-visible absorbance and fluorescence spectroscopy (FIGS. 1A-1D).
Characterization of monoSFP Variants—MonoSFP variants were characterized by size-exclusion chromatography during purification of the proteins. […] They have far-red to near infra-red fluorescence with large Stokes shift. […] To test this, we performed detergent (Triton X-100) assays with the monoSFPs and measured absorbance and fluorescence spectra. […]

[5] = Steady state fluorescence spectra and quantum yield; assay type: physicochemical; details: for brightness relative to L135E monoSFP: glycine loop extension; for Quantum yield / Ex/Em1, emission / Ex/Em1, excitation: in complex with biliverdin
Procedure: as §1
Characterization of monoSFP Variants—MonoSFP variants were characterized by size-exclusion chromatography during purification of the proteins. We further characterized the spectral properties and binding-efficiencies of a few of these monoSFPs (Tables 2 and 4), and found them to be similar to wild-type SFP (FIG. 2, FIG. 3, Table 4). They have far-red to near infra-red fluorescence with large Stokes shift. […] To test this, we performed detergent (Triton X-100) assays with the monoSFPs and measured absorbance and fluorescence spectra. Further, we made attempts to extend one of the loops which encloses biliverdin in the centre of the protein. Two mutants, FH88insGG and VP95insGG, were extended with glycine residues at the 88th and 95th positions in the amino acid chain of L135E monoSFP mutant. One hypothesis was that extension would prevent photon loss due to solvent exposure of the ligand and enhance the quantum efficiency.

[6] = UV-Visible absorbance spectra; assay type: physicochemical
Procedure: as §1, with “All experiments were performed with purified SFP samples (apo and holo forms) at pH 7.5 and room temperature.” left out

[7] = excitation at 380 nm and 630 nm, Yu et al. 2008; cited from earlier work

Molecule	Quantum yield [5]	Ex/Em1, emission ([5]; UV/blue excitation) [nm]	Ex/Em1, excitation ([5]; UV/blue excitation) [nm]	Ex/Em1, emission ([5]; red excitation) [nm]	Ex/Em1, excitation ([5]; red excitation) [nm]	further results
C=CC1=C(C)/C(=C/C2=NC(=C\c3[nH]c(/C=C4\NC(=O)C(C)=C4C=C)c(C)c3CCC(=O)O)/C(CCC(=O)O)=C2C)NC1=O [Biliverdin, Biliverdin IXα, reference compound]						far red fluorescence of free biliverdin [1]: enhanced far red fluorescence; bleaching of free form relative to complex with Sandercyanin [2]: bleaches faster
C=CC1=C(C)c2cc3[n-]c(cc4[n-]c(cc5nc(cc1n2)C(C)=C5C=C)c(C)c4CCC(=O)O)c(CCC(=O)O)c3C.[Cl-].[Fe+3] [hemin]						binding and fluorescence with Sandercyanin [3]: does not show binding and fluorescence
SFP-VP95insGG: L135E monoSFP extended with glycine residues at position 95, SEQ ID NO:6 (protein) MFIKPGRCPKPAVQEDFDAARYLGVWYDIQRLPNKFQKGECATATYSLSPGVGFSVFNRERLANGTIKSVIGSAIAEDPCEPAKLQFFHENAAPGGVPYWVLSTDYDNYALVYSCINSFEGASHAAYASIVSRQPTLPEETIKKLQGTMSSFGVGVDTLLTTNQDAAYCSAMNQ	0.003	657	380	653	570	binding to biliverdin [4]: retained binding to biliverdin; brightness relative to L135E monoSFP [5]: did not show significantly increased brightness
SFP-FH88insGG: L135E monoSFP extended with glycine residues at position 88, SEQ ID NO:5 (protein) MFIKPGRCPKPAVQEDFDAARYLGVWYDIQRLPNKFQKGECATATYSLSPGVGFSVFNRERLANGTIKSVIGSAIAEDPCEPAKLQFGGFHENAAPVPYWVLSTDYDNYALVYSCINEGASHAAYASIVSRQPTLPEETIKKLQGTMSSFGVGVDTLLTTNQDAAYCSAMNQ	0.002	663	380	653	570	binding to biliverdin [4]: retained binding to biliverdin; brightness relative to L135E monoSFP [5]: did not show significantly increased brightness
Wild-type SFP: Sandercyanin fluorescent protein from walleye Sander vitreus mucus, biliverdin-binding lipocalin tetramer; SEQ ID NO:1 (recombinant SEQ ID NO:31) (protein, listed as Sander vitreus, biliverdin chromophore) MNAIQVISLTLLSVLAAKAMFIKPGRCPKPAVQEDFDAARYLGVWYDIQRLPNKFQKGECATATYSLSPGVGFSVFNRERLANGTIKSVIGSAIAEDPCEPAKLQFFHENAAPVPYWVLSTDYDNYALVYSCINLGASHAAYASIVSRQPTLPEETIKKLQGTMSSFGVGVDTLLTTNQDAAYCSAMAQ	0.016	675	375	675	630	Molar extinction coefficient at 375 nm ([6]; phosphate buffer of pH 7.4, 375 nm): 21,000 M^−1 cm^−1; Molar extinction coefficient at 630 nm ([6]; phosphate buffer of pH 7.4, 630 nm): 13,500 M^−1 cm^−1; emission maxima [7]: 678 nm; excitation maxima [5]: 375 nm; fluorescence intensity with D2O ([5]; increasing concentrations of D2O, no changes in the absorbance): increased fluorescence intensity; photo-stability of fluorescence ([2]; overnight exposure with UV or red light): does not bleach significantly; bleaching of fluorescence ([2]; walleye mucous cells and solution, several hours of excitation and emission): do not bleach
SFP-V71E: monomeric SFP variant V71E, SEQ ID NO:2 (protein) FIKPGRCPKPAVQEDFDAARYLGVWYDIQRLPNKFQKGECATATYSLSPGEGFSVFNRERLANGTIKSVIGSAIAEDPCEPAKLQFFHENAAPVPYWVLSTDYDNYALVYSCINLGASHAAYASIVSRQPTLPEETIKKLQGTMSSFGVGVDTLLTTNQDAAYCSAMNQ	0.003	670	380	660	600	
SFP-L135E: monomeric SFP variant L135E, SEQ ID NO:3 (protein) FIKPGRCPKPAVQEDFDAARYLGVWYDIQRLPNKFQKGECATATYSLSPGVGFSVFNRERLANGTIKSVIGSAIAEDPCEPAKLQFFHENAAPVPYWVLSTDYDNYALVYSCINEGASHAAYASIVSRQPTLPEETIKKLQGTMSSFGVGVDTLLTTNQDAAYCSAMNQ	0.025	682	380	676	600	
SFP-A137E: monomeric SFP variant A137E, SEQ ID NO:4 (protein) FIKPGRCPKPAVQEDFDAARYLGVWYDIQRLPNKFQKGECATATYSLSPGVGFSVFNRERLANGTIKSVIGSAIAEDPCEPAKLQFFHENAAPVPYWVLSTDYDNYALVYSCINLGESHAAYASIVSRQPTLPEETIKKLQGTMSSFGVGVDTLLTTNQDAAYCSAMNQ	0.003	663	380	653	580	

From US10962528B2, “Blue fluorescent protein monomers and uses thereof” (WISYS TECHNOLOGY FOUNDATION, INC., priority 2015, dated 2021)
